Fewer inactive variants are shown than the library holds.
B1: TPR 5TU (parent)
chain: GGAUCUUCUCGAUCUAACAAAAAAGACAAAUCUGCCACAAAGCUUGAGAGCAUCUUCGGAUGCAGAGGCGGCAGCCUUCGGUGGCGCGAUAGCGCCAACGUUCUCAACUAUGACACGCAAAACGCGUGCUCCGUUGAAUGGAGUUUAUCAUG

Variants of: B1
Assay: polymerase ribozyme fitness, log enrichment relative to wild type (log ratio); higher = more active; in vitro selection for triplet polymerase activity
In short: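 To select mutant libraries of each subunit of a heterodimeric triplet polymerase ribozyme, built by PCR and transcribed, each was annealed with a biotinylated primer, partner subunit and triplets, then incubated frozen at −7 °C. Extended constructs were gel-excised, captured on streptavidin beads and amplified by RT-PCR, in one round carried out in triplicate. Illumina sequencing of input and output libraries kept genotypes with ≥10 input reads and ≥1 read per output. Fitness is the base-2 logarithm of genotype enrichment relative to wild-type enrichment, from inverse-variance-weighted replicate averages.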

Going from A22U C32U A47U G83A C125U to A40C C54A G59C C87U, the “polymerase ribozyme fitness (log ratio)” value rises from at most -4.2 to -2.96.

Compared with A73G G94A A97U A120U, G34U A41U G84A U145C is lower in “polymerase ribozyme fitness (log ratio)” value: -1.74 for the first, -3.69 for the second.

Compared with A52G C93A G140A, G11C C93U U101G G128U is higher in “polymerase ribozyme fitness (log ratio)” value: at most -4.2 for the first, -3.85 for the second.

U9C C27G U44G C85U C93G and A52U U55A C87G cannot be ordered by “polymerase ribozyme fitness (log ratio)” value: at most -4.2 for the first, at most -4.2 for the second.

C5G U7C U13A A16G C51U G92C A98G C114A and C85G A98U C129A U134C are within 0.2 log units of each other in “polymerase ribozyme fitness (log ratio)” value: -4.13 for the first, -4.18 for the second.

Going from G46U C96U A142G to G42A G88A C96A C118G G126U, the “polymerase ribozyme fitness (log ratio)” value falls from -1.19 to at most -4.2.

C27G C54A G65C C95U C96A C99A and G86U C99U C103G C131G cannot be ordered by “polymerase ribozyme fitness (log ratio)” value: at most -4.2 for the first, at most -4.2 for the second.

G94C C96U A113U A115U U130C A137G and A52C C87U A91U C116U G128U cannot be ordered by “polymerase ribozyme fitness (log ratio)” value: at most -4.2 for the first, at most -4.2 for the second.

Going from A52C C57U G80C A98U to C14U A22G A39G G71A C93U G152C, the “polymerase ribozyme fitness (log ratio)” value falls from -2.02 to at most -4.2.

Compared with A52G A119G, C36A A47U G74U G92C A115G C149G is lower in “polymerase ribozyme fitness (log ratio)” value: -0.813 for the first, at most -4.2 for the second.

A20U U77G C96U C99U and A17U U55A G59C G94U C132G cannot be ordered by “polymerase ribozyme fitness (log ratio)” value: at most -4.2 for the first, at most -4.2 for the second.

First: A37U G58C
Second: A39G
The “polymerase ribozyme fitness (log ratio)” value of the first is higher: -0.362 for the first, -1.53 for the second.

Going from A49U G59C A73G A119C U134G G136A to G83A G143A, the “polymerase ribozyme fitness (log ratio)” value rises from -3.39 to -1.28.

Compared with A47C A60G A107U, G48U C95U is higher in “polymerase ribozyme fitness (log ratio)” value: -3.3 for the first, -1.01 for the second.

U15A A24G A98G C99A and U45A G48U G50C C85A C87A C95A U145C cannot be ordered by “polymerase ribozyme fitness (log ratio)” value: at most -4.2 for the first, at most -4.2 for the second.

Compared with A16U C32G A66U C72U C85G, A12G C54U C57A C75U is higher in “polymerase ribozyme fitness (log ratio)” value: at most -4.2 for the first, -0.0208 for the second.

Going from U82G C95G to C10U A12U A21C A39U G71A A106C C125G G141A, the “polymerase ribozyme fitness (log ratio)” value falls from -1.65 to at most -4.2.

First: G25U A52U U145C
Second: C51A C54U C85U
The “polymerase ribozyme fitness (log ratio)” value of the first is lower: -3.91 for the first, -1.93 for the second.

Compared with A20C C27G C96G A115U, C54A G143C is higher in “polymerase ribozyme fitness (log ratio)” value: at most -4.2 for the first, -2.81 for the second.

C5U G62A U90G A138G A142U and A60C G68A C95A C96G U134G U139G cannot be ordered by “polymerase ribozyme fitness (log ratio)” value: at most -4.2 for the first, at most -4.2 for the second.

Compared with U45A U53C C57U C85A C96A C123U C125A A142C, U6G U146A is higher in “polymerase ribozyme fitness (log ratio)” value: at most -4.2 for the first, -1.17 for the second.

Going from A12G A40G A41C G65A C85U A107G C123G G152A to A39U G80U, the “polymerase ribozyme fitness (log ratio)” value rises from at most -4.2 to -3.44.

Going from A23U C51U C76A C96G C103G A115G to G42U, the “polymerase ribozyme fitness (log ratio)” value rises from at most -4.2 to -3.47.

Going from U45G U55G C76U G84A to U9A A12U C32U A37U G92C, the “polymerase ribozyme fitness (log ratio)” value falls from -3.76 to at most -4.2.

Compared with G80A C99G G124A, C14G A30U C36A U55A A73C C85U A119G is lower in “polymerase ribozyme fitness (log ratio)” value: -0.389 for the first, at most -4.2 for the second.

C51A G92U U109C and A37C U44A C87A G94A U134G G141U cannot be ordered by “polymerase ribozyme fitness (log ratio)” value: at most -4.2 for the first, at most -4.2 for the second.

Compared with G88A C93G C96A A110G C123G, U6A C125G is higher in “polymerase ribozyme fitness (log ratio)” value: at most -4.2 for the first, -0.431 for the second.

Compared with U31C G92A C118G, U15C A17U C51U G83A C123G G152A is higher in “polymerase ribozyme fitness (log ratio)” value: -2.66 for the first, -2.38 for the second.

Going from C5G C51A to A41C C75U G92C A150U, the “polymerase ribozyme fitness (log ratio)” value falls from -1.01 to -2.91.

Compared with A29U G62C G70A A137U A138C, C57U C149U is higher in “polymerase ribozyme fitness (log ratio)” value: at most -4.2 for the first, -1.28 for the second.

A52U U55G C87A A119U and C10A U45A C69U C72U cannot be ordered by “polymerase ribozyme fitness (log ratio)” value: at most -4.2 for the first, at most -4.2 for the second.

Going from G83C G143U to G84U C99U, the “polymerase ribozyme fitness (log ratio)” value rises from -2.8 to -1.

Going from C54U G80U to C5A A21U U77A U82G C96G U104G C105A C118U U139C, the “polymerase ribozyme fitness (log ratio)” value falls from -0.459 to at most -4.2.

Going from C85U C93A to U13G A49C G152U, the “polymerase ribozyme fitness (log ratio)” value falls from -2.72 to at most -4.2.

First: C10U C18U A39U A49U U61A G68U U82G A110U G133A
Second: A137C U144A U146A
The “polymerase ribozyme fitness (log ratio)” value of the first is lower: at most -4.2 for the first, -3.95 for the second.

Going from A16C G50A A64G C75A G83C C131A to A39C C85U, the “polymerase ribozyme fitness (log ratio)” value rises from at most -4.2 to -2.48.

First: G50U C57U
Second: A49C G70U A97U A107G G128U G136A U139A
The “polymerase ribozyme fitness (log ratio)” value of the first is higher: 1 for the first, at most -4.2 for the second.

C14U A26G G92C and A23G C27U C93G C103G A150G cannot be ordered by “polymerase ribozyme fitness (log ratio)” value: at most -4.2 for the first, at most -4.2 for the second.

A40G C75U C93U A97U and A26G A37U C75U G92A G133C G143U cannot be ordered by “polymerase ribozyme fitness (log ratio)” value: at most -4.2 for the first, at most -4.2 for the second.

Compared with A97U A98G, A41U A52G C96A is lower in “polymerase ribozyme fitness (log ratio)” value: -2.31 for the first, -3.24 for the second.

A30C G50C G65A G84A U109G A142U and G88C C118G G140A cannot be ordered by “polymerase ribozyme fitness (log ratio)” value: at most -4.2 for the first, at most -4.2 for the second.

For A12C A22C U82A G126A, the “polymerase ribozyme fitness (log ratio)” value was 0.264.

Reference: the RNAGym collection of RNA variant scans (doi:10.1073/pnas.2313332121)
